Laboratory results reported in the nanobody polyreactivity screen of Harvey et al. (2022).

Assay: yeast display, Sf9 membrane polyspecificity reagent, FACS + sequencing; frameworks hold sequencing errors
Outline: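 Genes from sorted yeast were amplified by colony PCR, read by MiSeq 2 × 250 sequencing and filtered on CDR length. These cells carried a synthetic nanobody library in Saccharomyces cerevisiae BJ5465 and were sorted by FACS into low and high (top ~1%) gates on anti-HA and streptavidin fluorescence. Polyreactivity is labelled according to the gate of origin.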

For “QVQLVESGGGLVQAGGSLRLSCAASGRTFYPYAMGWYRQAPGKEREFVAAIRWRGGSTRYADSVKGRFTISRDNAKNTVYLQMNSLKPEDTAVYYCAADLRLGLNYYYWGQGTQVTVSS”, the “polyreactivity (PSR sort gate)” value was “high polyreactivity”.

In the case of “QVQLVESGGGLVQAGGSLRLSCAASGRTFYPYAMGWYRQAPGKERELVARISASGGSTYYADSVKGRFTISRDNAKNTVYLQMNSLKTEDTAVYYCARESFWRTLMDYWGQGTQVTVSS”, the “polyreactivity (PSR sort gate)” value is reported as “high polyreactivity”.

With “QVQLVESGGGLVQAGGSLRLSCAASGRTFYPYAMGWYRQAPGKERELVATITWSGTTTYYADSVKGRFTISRDNAKNIVYLQMNSLKPEDTAVYYCAADVWEVVTPYGTIDDDYWGQGTQVTVSS” the “polyreactivity (PSR sort gate)” value was “high polyreactivity”.

In the case of “QVQLVESGGGLVQAGGSLRLSCAASGRTFYPYAMGWYRQEPGKVRELVARISSGGNTKYADSVKGRFTISRDNAKNTVYLQMNSLKPEDTAVYYCNAAHYDYVAWKRFNYWGQGTQVTVSS”, the “polyreactivity (PSR sort gate)” value is reported as “high polyreactivity”.

With “QVQLVESGGGLVQAGGSLRLSCAASGRTFYPYVMGWYRQAPGKEREFVAAISGTGGTTYYADSVKGRFTISRDNAKTTVYLQMNSLKPEDTAVYYCNRRIPYTSYSYGYWGQGTQVTVSS” the “polyreactivity (PSR sort gate)” value was “high polyreactivity”.

For “QVQLVESGGGLVQAGGSLRLSCAASGRTFYRNAMGWYRQAPGKDRELVAAISSGGSTTYADSVKGRFTISRDNAKNTVFFQMNSLKPEATAVYYCAARSHAGSVSPRLKEYDYWGQGTLVTVSS”, the “polyreactivity (PSR sort gate)” value was “low polyreactivity”.

In the case of “QVQLVESGGGLVQAGGSLRLSCAASGRTFYRNAMGWYRQAPGKEREFVAVISVSGGSTYYADSVKGRFTISRDNAKNTVYLQMNSLKPEDTAVSYCAADDYYLAGDYWGQGTQVTVSS”, the “polyreactivity (PSR sort gate)” value is reported as “low polyreactivity”.

For “QVQLVESGGGLVQAGGSLRLSCAASGRTFYRNAMGWYRQAPGKERELVARINDGAGTYYADSVKGRFTISRDNAKNTVYLQMNSLKPEDTAVYYCADDTWGTPTPFVHYPEFEHWGQGTQVTVSS”, the “polyreactivity (PSR sort gate)” value was “low polyreactivity”.

For “QVQLVESGGGLVQAGGSLRLSCAASGRTFYRNAMGWYRQAPGKERELVARITSGGSTNYADSVKGRFTISRDNAKNTVYLQMNSLKPEDTAVYYCAAVSRYYPYGYWGQGTQVNVSS”, the “polyreactivity (PSR sort gate)” value was “high polyreactivity”.

With “QVQLVESGGGLVQAGGSLRLSCAASGRTFYRNTMGWYRQAPGKERELVAAITSSGGSTYYADSVKGRFTISRDNAKNTVYLQMNSLKPEDTAVYYCAAPTWQKVVNPGGYYWGQGTQVTVSS” the “polyreactivity (PSR sort gate)” value was “high polyreactivity”.

For “QVQLVESGGGLVQAGGSLRLSCAASGRTFYRNVMGWYRQAPGKERELVAAISSRGGSTYYADSVKGRFTISRDNAKNTVYLQMNSLKPEDTAVYYCAAPRASGYYWGQGTQVTVSS”, the “polyreactivity (PSR sort gate)” value was “high polyreactivity”.

With “QVQLVESGGGLVQAGGSLRLSCAASGRTFYRNVMGWYRQAPGKERELVAAISWSGGRTYYADSVKGRFTISRDNAKNTVYLQMNSLKPEDTAVYYCARYDRGGRHYYYWGQGTQVTVSS” the “polyreactivity (PSR sort gate)” value was “high polyreactivity”.

With “QVQLVESGGGLVQAGGSLRLSCAASGRTFYRYAMGWYRQAPGKERELVAAIRWSGGSTYYADSVKGRFTISRDNAKNTVYLQMNSLKPEDTAVYYCAKDTFRGYSPVKYDFWGQGTQVTVSS” the “polyreactivity (PSR sort gate)” value was “low polyreactivity”.

In the case of “QVQLVESGGGLVQAGGSLRLSCAASGRTFYRYAMGWYRQAPGKERELVAAISRSGTTYYADSVKGRFTISRDNAKNTVYLQMNSLKPEDTAVYFCAAKPAGRQRGGDYWGQGTQVTVSS”, the “polyreactivity (PSR sort gate)” value is reported as “high polyreactivity”.

With “QVQLVESGGGLVQAGGSLRLSCAASGRTFYRYAMGWYRQAPGKERELVAAITRRGDSTSYADSVKGRFTNSRDNAKNTVYLQMNSLKPEDTADYYCATLVQGSVYGLYGGGYWGQGTQVTVSS” the “polyreactivity (PSR sort gate)” value was “low polyreactivity”.

For “QVQLVESGGGLVQAGGSLRLSCAASGRTFYRYAMGWYRQAPGKERELVAAITRRSGNTYYADSVKGRFTISRDNAKNTVYLQMNSLKPEDTAVYYCAADPETWSPHYESLGYYWGQGTQVTVSS”, the “polyreactivity (PSR sort gate)” value was “high polyreactivity”.

With “QVQLVESGGGLVQAGGSLRLSCAASGRTFYRYGMGWYRQAPGKEREFVAAITRSGDSTYADSVKGRFTISRDNAKNTVYLQMNSLKPEDTAVYYCAKVFLRQYAYRYYYWGQGTQVTVSS” the “polyreactivity (PSR sort gate)” value was “high polyreactivity”.

With “QVQLVESGGGLVQAGGSLRLSCAASGRTFYSNAMGWNRQAPGKERELVATITLSGGSTDYADSVKGRFTISRDNAKNTVYLQMNSLKPEDTAVYYCNADTDVHLIMGYWGQVTQVTVSS” the “polyreactivity (PSR sort gate)” value was “low polyreactivity”.

For “QVQLVESGGGLVQAGGSLRLSCAASGRTFYSNAMGWYRQAPGKERELVAAISSSGTSTRYADSVKGRFTISRDNAKNTVYLQMNSLKPEDTAVYYCAAVGWYHDYYWGQGTQVTVSS”, the “polyreactivity (PSR sort gate)” value was “high polyreactivity”.

In the case of “QVQLVESGGGLVQAGGSLRLSCAASGRTFYSNAMGWYRQAPGKERELVAAITSTDDSTYYADSVKGRFTISRDNAKNTVYLPMNSLKPEDTAVYYCAAESGYPVYTYVSSGDYWGQGTQVTVSS”, the “polyreactivity (PSR sort gate)” value is reported as “low polyreactivity”.

In the case of “QVQLVESGGGLVQAGGSLRLSCAASGRTFYSNAMGWYRQAPGKERELVAGISKRGTITYYADSVKGRFTISRDNAKNTVYLQMNSLKPEDTAVYYCAVGRPSGWSYYTGGDYWGQGTQVTVSS”, the “polyreactivity (PSR sort gate)” value is reported as “high polyreactivity”.

In the case of “QVQLVESGGGLVQAGGSLRLSCAASGRTFYSNAMGWYRQAPGKERELVAVIRWNGGSTYADSVKGRFTISRDNAKNTVYLQMNSLKPEDTAVYYCAVTRYHSPPRYYYWGQGTQVTVSS”, the “polyreactivity (PSR sort gate)” value is reported as “low polyreactivity”.

In the case of “QVQLVESGGGLVQAGGSLRLSCAASGRTFYSNVMGWYRQAPGKERELVAAISKSGGRTYYADSVKGRFTISRDNAKNTVYLQMNSLKPEDTAVYYCATDHGRYHGRYDYWGQGTQVTVSS”, the “polyreactivity (PSR sort gate)” value is reported as “high polyreactivity”.

With “QVQLVESGGGLVQAGGSLRLSCAASGRTFYSYAIGWYRPAPGKERELVASITRSGTRTYYADSVKGRFTISRDNAKNTVYLQMNSLKPEDSAVYYCAARYFPLGGYSWGQGTQVSVSS” the “polyreactivity (PSR sort gate)” value was “high polyreactivity”.

In the case of “QVQLVESGGGLVQAGGSLRLSCAASGRTFYSYAMGWYRPAPGKERELVAAISRRGGSTYYADSVKGRFTISRDNAKNTVYLQMNSLKPEDTAVYYCAKGGGRVGQPGYDYWGQGTQVTVSS”, the “polyreactivity (PSR sort gate)” value is reported as “high polyreactivity”.

In the case of “QVQLVESGGGLVQAGGSLRLSCAASGRTFYSYAMGWYRPAPGQERELVARITWSGGTYYADSVKGRFTISRDNAKTTVYLQMNSLKPEDTAVYYCNKYRPYGRIYHLAYGRDYWGQGTQVTVSS”, the “polyreactivity (PSR sort gate)” value is reported as “high polyreactivity”.

For “QVQLVESGGGLVQAGGSLRLSCAASGRTFYSYAMGWYRQAPGKERDLVASITRAGSTYYADSVKGRFTISRDNAKNTVYLQMNSLKPEDTAVYYCAATYRSDRRYGSHYRVDYWGQGTQVTVSS”, the “polyreactivity (PSR sort gate)” value was “high polyreactivity”.

For “QVQLVESGGGLVQAGGSLRLSCAASGRTFYSYAMGWYRQAPGKERELVAAISSSSGRTYYADSVKGRFTISRDNAKNTVYLQMNSLKPEDTGVYYCNRAGGYRTTFYSWGQGTQVTVSS”, the “polyreactivity (PSR sort gate)” value was “high polyreactivity”.

In the case of “QVQLVESGGGLVQAGGSLRLSCAASGRTFYSYAMGWYRQAPGKERELVAAISYTGASTFYADSVKGRFTISRDKSKNTVYLQMNSLKPEDTAVYYCADRKVRFGVDYWGQGTQVTVSS”, the “polyreactivity (PSR sort gate)” value is reported as “high polyreactivity”.

With “QVQLVESGGGLVQAGGSLRLSCAASGRTFYSYAMGWYRQAPGKERELVAAISYTGASTFYADSVKGRFTISRDNAKNTVYLQMNSLKPEDTAVYYCAGRKVRFGVDYWGQGTQVTVSS” the “polyreactivity (PSR sort gate)” value was “high polyreactivity”.

With “QVQLVESGGGLVQAGGSLRLSCAASGRTFYSYAMGWYRQAPGKERELVASISSGGGTNYADSVKGRFTISRDNAKNTVYLQMNSLKPEDTAVYYCAAKYWFFYPYDYWGQGTQVTVSS” the “polyreactivity (PSR sort gate)” value was “low polyreactivity”.

In the case of “QVQLVESGGGLVQAGGSLRLSCAASGRTFYSYAMGWYRQAPGTERELVAAITSSGGRTYYADSVKGRFTISRDNAKNTVYLQMNSLKPEDTAVYYCAAKWITRRGGDFDYWGQGTQVTVSS”, the “polyreactivity (PSR sort gate)” value is reported as “high polyreactivity”.

In the case of “QVQLVESGGGLVQAGGSLRLSCAASGRTFYSYSMGWYRQAPGKERELVAAINRSGGRTYYADSVKGRFTISRDNAKNTVYLQMNSLKPEDTAVYYCNALEYYRYDYWGQGTQVTVSS”, the “polyreactivity (PSR sort gate)” value is reported as “high polyreactivity”.

For “QVQLVESGGGLVQAGGSLRLSCAASGRTFYTNAMGWYRQAPGKERELVAVISRGGTTYYADSVKGRFTISRDNAQNSVSLQMNSLKPDDTAVYYCAKRSPYRYYGYKLRDYWGQGTQVTVSS”, the “polyreactivity (PSR sort gate)” value was “low polyreactivity”.

For “QVQLVESGGGLVQAGGSLRLSCAASGRTFYTYAMGWYRQAPGKEREFVAAITGSGGSTYYADSVKGRFTISRDNAKNTVYLQLNSLKPEDTAVYYCNARSPGDVWYYYWGQGTQVTVSS”, the “polyreactivity (PSR sort gate)” value was “low polyreactivity”.

For “QVQLVESGGGLVQAGGSLRLSCAASGRTFYTYAMGWYRQAPGKERELVAAINWSATRTYYADSVKGRFTISRDNAKNTVYLQMNSLKPEDTAVYYCNAVYYRSSYPSGRYGMDYWGQGTQVTVSS”, the “polyreactivity (PSR sort gate)” value was “high polyreactivity”.

For “QVQLVESGGGLVQAGGSLRLSCAASGRTFYTYAMGWYRQAPGKERELVAAITVTGDSTYYADSVKGRFTISRDNAKNTVYLQMNSLKPEDTAVYYCAADDYDPWYDWTMYYWGQGTQVTVSS”, the “polyreactivity (PSR sort gate)” value was “high polyreactivity”.

In the case of “QVQLVESGGGLVQAGGSLRLSCAASGRTFYTYAMGWYRQAPGKERELVAAITYRGGNTYYADSVKGRFTISRDNAKNTVYLEMNSLKPEDTAVYYCAATYKRRSGQSFDYWGQGTQVTVSS”, the “polyreactivity (PSR sort gate)” value is reported as “high polyreactivity”.

For “QVQLVESGGGLVQAGGSLRLSCAASGRTFYTYAMGWYRQAPGKERELVAGIRTGGGSTYYADSVKGRFTISRDNAKYSVYLQMNSLKPDDTAVYYCAADTYDGYDYWGQGSQVTVSS”, the “polyreactivity (PSR sort gate)” value was “low polyreactivity”.

In the case of “QVQLVESGGGLVQAGGSLRLSCAASGRTFYTYARGWYRQAPGKERELVAAITKRGGSTYYADSVKGRFTISRDYAKNTVYLQMNSLKPEDTAVYYCNQELATARGQSLYRTYSGYGYWGQGTQVTVSS”, the “polyreactivity (PSR sort gate)” value is reported as “high polyreactivity”.

In the case of “QVQLVESGGGLVQAGGSLRLSCAASGRTFYVNAMGWYRQAPGKERELVASITSGGSTYYADSVKGRFTISRDNAKNTVSLQMNSLKPEDTAVYYCAAGSKDLYRPYDYWGQGTQLTVSS”, the “polyreactivity (PSR sort gate)” value is reported as “high polyreactivity”.

For “QVQLVESGGGLVQAGGSLRLSCAASGRTFYVYDMGWYREAPGKVRELVAFISSSGSTNYADSVKGRFTISRDNAKYTVYLQMNSLKPEDTAGYYCNKRLIYYRGTYYSRRFDYWGQGTQVTVSS”, the “polyreactivity (PSR sort gate)” value was “high polyreactivity”.

In the case of “QVQLVESGGGLVQAGGSLRLSCAASGRTFYVYDMGWYRQAPGKERELVAAISNICTRTYYADSVKGRFTISRDNAKNTVYLQMNSLKPEVTAVYYCATGRSRVYKGRGDYWGQGTHVTVSS”, the “polyreactivity (PSR sort gate)” value is reported as “high polyreactivity”.
